From article PMC12153317 (2025)
Positions count from the first letter of the chain named. “And” between values parts separate entries of the source, which are not always exact repeats. Equal entries are not always repeated.

B1: FI6v3 recombinant human IgG (antibody, V domains shown)
VH: QVQLVESGGGVVQPGRSLRLSCAASGFTFSTYAMHWVRQAPGKGLEWVAVISYDANYKYYADSVKGRFTISRDNSKNTLYLQMNSLRAEDTAVYYCAKDSQLRSLLYFEWLSQGYFDYWGQGTLVTVSS
VL: not shown
B2: S8V1-157 recombinant human IgG1 (antibody, V domains shown)
VH: EVQLVQSGAEVKKPGASVKVSCKVSGYRLTALSMHWVRQAPGKGLEWMGGFDPEEDETIYAQNFQGRVTLTEDTSTDTVYMELSSLRSEDTGVYYCATLMGANPFDYWGQGTLIIVSG
VL: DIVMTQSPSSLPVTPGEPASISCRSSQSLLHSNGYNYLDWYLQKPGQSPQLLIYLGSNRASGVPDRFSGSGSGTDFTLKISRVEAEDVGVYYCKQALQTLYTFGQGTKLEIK
B3: S1V2-17 recombinant human IgG1 (antibody, V domains shown)
VH: QVKLVQSGAEVKKPGASVKVSCKVSGYTLSELSIHWVRQVPGKGLESMGGFDPEDDGAIYAESFQGRVTMTEDTSTDTSFMELHSLRSEDTAVYYCVTWLVGTTVAAYWGQGTLVTVS
VL: MTQTPFSLPVTPGEPASISCRSSQSLLYSNGYNHLDWYLQKPGQSPQLLIYLGSYRASGVPDRFSGSGSGTDFTLKISRVEADDVGVYYCMQALQAPRTFGQGTKVEIK
B4: S1V2-65 recombinant human IgG1 (antibody, V domains shown)
VH: EVQLVQSGAEVKKPGETLKISCKGSGYSFTNYWIGWVRQMPGKGLECMGIIDPSDSETRYSPSFQGQVTISADKSTNTAFLQWSTVKASDTAIYYCARLGYGDSPPFDFWGQGAGVTVS
VL: MTQSPLSLPVTPGESASISCRSSQSLLYSNGYNHLDWYVQKPGQPPQLLIFLGSTRASGVSDRVSGSGSGTDFTLQISRVEAEDVGVYYCMQALETPYTFGQGTKLEVK
B5: S1V2-60 recombinant human IgG1 (antibody, V domains shown)
VH: EVQLVQSGAEVSEPGKSLKISCKGSAYSFINYWIGWVRQMPGKGLECMGIIDPSDSETRYNPSFEGHVLISADTSINTAYLQWSSLRASDTAMYYCVRLGYGDSPPFDSWGQGTLVTVS
VL: B3 VL with T4S, L39Q, S45P, Y51F, Y55R, D83E, A96D, R98Y, V106L

biological target: pandemic H2 HA (soluble HA ectodomain, ELISA) (influenza A virus); assay: ELISA

Binder | Kd [nM]
B1 | 0.36
B2 | 2.5
B3 | 6.5
B4 | 10
B5 | 8.8

biological target: specific HAs not engaged in ELISA (soluble HA ectodomains) (influenza virus); assay: ELISA

Binder | Kd [nM]
B2 | > 100
B3 | > 100
B4 | > 100
B5 | > 100

biological target: pre-pandemic H5 HAs (soluble HA ectodomains, ELISA) (influenza A virus); assay: ELISA

Binder | Kd [nM]
B1 | 0.44
B2 | < 0.1
B3 | 0.14
B4 | 0.1
B5 | 0.1

biological target: all seasonal H3s (1968–2020) assayed (soluble HA ectodomains, ELISA) (influenza A virus); assay: ELISA

Binder | Kd
B4 | 0.16 nM and 0.21 nM and 0.25 nM
